Measurements: patent US20110165145A1 (published 2011)

T1: IGF binding protein 2 (BP2) (UniProt P18065 36-325)
T1 construct: also called IGF BP2
T1 sequence (looked up): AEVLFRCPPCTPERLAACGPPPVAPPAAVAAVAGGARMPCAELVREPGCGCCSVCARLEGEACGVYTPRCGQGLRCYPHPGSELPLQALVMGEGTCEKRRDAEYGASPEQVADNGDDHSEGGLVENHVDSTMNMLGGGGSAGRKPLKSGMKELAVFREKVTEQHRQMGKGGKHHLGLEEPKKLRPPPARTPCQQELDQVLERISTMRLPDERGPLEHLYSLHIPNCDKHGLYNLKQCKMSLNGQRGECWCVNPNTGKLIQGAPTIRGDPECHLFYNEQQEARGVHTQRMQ

T2: IGF binding protein 4 (BP4) (UniProt P22692 22-258)
T2 construct: also called IGF BP4
T2 sequence (looked up): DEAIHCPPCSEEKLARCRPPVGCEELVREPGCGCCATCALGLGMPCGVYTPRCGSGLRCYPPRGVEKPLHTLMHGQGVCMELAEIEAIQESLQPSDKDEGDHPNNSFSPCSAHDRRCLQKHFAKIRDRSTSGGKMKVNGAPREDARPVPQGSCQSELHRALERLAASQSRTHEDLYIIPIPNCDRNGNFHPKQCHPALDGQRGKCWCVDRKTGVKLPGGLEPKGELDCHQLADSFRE


Key:
[1] = molecular target: T3, insulin-like growth factor II (IGF-II), amino acids 1-67 (human, UniProt P01344 25-91); assay: SPR (Flexchip), Fab, 2nd of duplicate
T3 construct: recombinant; also called IGF-II (67aa); IGF2
T3 sequence (P01344 25-91): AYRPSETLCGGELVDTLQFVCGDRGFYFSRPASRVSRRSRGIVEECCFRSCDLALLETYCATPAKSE

[2] = molecular target: T4, IGF-IIE (amino acids 1-104 of pro-IGF-II) (human, UniProt P01344 25-128); assay: SPR (Flexchip), Fab, 2nd of duplicate
T4 construct: Biotinylated in the selections; also called IGF-IIE (104aa)
T4 sequence (P01344 25-128): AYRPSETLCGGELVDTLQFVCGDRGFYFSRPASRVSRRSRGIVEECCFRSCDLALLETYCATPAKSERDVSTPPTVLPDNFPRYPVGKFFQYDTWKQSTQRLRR

[3] = molecular target: T3, insulin-like growth factor II (IGF-II), …; assay: competition SPR (BIACORE T100), affinity in solution, free ligand read on huIR-A ECD; measurement 2
Experimental: (§1) Competition SPR (BIACORE®) was performed under conditions of partially mass-transport limited conditions according to previously described methodology (Nieba et al., 1996). Approximately 16,700 relative response units (RU) of huIR-A (-exon11) ectodomain was coupled by standard amine chemistry to a BIACORE® CM5 chip sensor. Uncoated flow-cell surface was used as a reference. […] Regeneration of the surface was achieved by injection of 30 ul NaCltrate/NaCl pH 4.5. […] These Req estimates were subsequently plotted against total concentrations of Fab used and the resulting inhibition curve was utilised to calculate dissociation constant (KD).

[4] = molecular target: T4, IGF-IIE (amino acids 1-104 of …); assay: as above
Experimental: as §1

[5] = molecular target: T3, insulin-like growth factor II (IGF-II), …; assay: competition SPR (BIACORE T100), affinity in solution, free ligand read on huIR-A ECD; measurement 1
Experimental: as §1

[6] = molecular target: T4, IGF-IIE (amino acids 1-104 of …); assay: as above
Experimental: as §1

[7] = molecular target: T3, insulin-like growth factor II (IGF-II), …; assay: cell-based or functional assay
[8] = molecular target: T4, IGF-IIE (amino acids 1-104 of …); assay: cell-based or functional assay
[9] = molecular target: T3, insulin-like growth factor II (IGF-II), …; assay: SPR (Flexchip), Fab, 1st of duplicate
[10] = molecular target: T4, IGF-IIE (amino acids 1-104 of …); assay: SPR (Flexchip), Fab, 1st of duplicate
[11] = molecular target: insulin-like growth factor I (IGF-I) (UniProt P05019 49-118); assay: cell-based or functional assay
insulin-like growth factor I (IGF-I), sequence (P05019 49-118 limits assumed): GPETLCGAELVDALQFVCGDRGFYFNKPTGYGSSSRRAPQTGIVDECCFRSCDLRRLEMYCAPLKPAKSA

[12] = molecular target: T1, IGF binding protein 2 (BP2); assay: SPR (BIACORE T100): BP2 injected over M0064-E04 IgG captured on Protein G', with buffer in place of IGF-II
[13] = molecular target: T3, insulin-like growth factor II (IGF-II), …; assay: SPR (BIACORE), IgG
[14] = molecular target: T4, IGF-IIE (amino acids 1-104 of …); assay: SPR (BIACORE), IgG
[15] = molecular target: T3, insulin-like growth factor II (IGF-II), …; assay: SPR, IgG on Protein G', then ligand, then BP; competitor BP2; 0 = no significant competition, 5 = competes strongly
Experimental: (§2) BIACORE® T100 and a CM5 chip coated with Protein G were utilised to set up following assay. Approximately 1000 RU of Protein G′ was immobilized on a CM5 chip using standard amine chemistry immobilization method.
(§3) 4) Protein G′ surface was finally regenerated by injection of 10 mM Glycine pH 1.5-injected at 30 ul/min for 60 sec.

[16] = molecular target: T4, IGF-IIE (amino acids 1-104 of …); assay: as above
Experimental: as §2, §3

[17] = molecular target: T3, insulin-like growth factor II (IGF-II), …; assay: SPR, IgG on Protein G', then ligand, then BP; competitor BP4; 0 = no significant competition, 5 = competes strongly
Experimental: as §2, §3

[18] = molecular target: T4, IGF-IIE (amino acids 1-104 of …); assay: as above
Experimental: as §2, §3

[19] = molecular target: T2, IGF binding protein 4 (BP4); assay: SPR (BIACORE T100): BP4 injected over M0064-E04 IgG captured on Protein G', with buffer in place of IGF-II
[20] = molecular target: T3, insulin-like growth factor II (IGF-II), …; assay: cell-based or functional assay; remark: listed apart in the source
[21] = molecular target: T4, IGF-IIE (amino acids 1-104 of …); assay: cell-based or functional assay; remark: listed apart in the source

Binder | Kd [1] | Kd [2] | Kd [3] | Kd [4] | Kd [5] | Kd [6] | IC50, IGF-II stimulated Ba/F3 cell proliferation (MTS) [7] | IC50, IGF-IIE stimulated Ba/F3 cell proliferation (MTS) [8] | Kd [9] | Kd [10] | IGF-I stimulated Ba/F3 cell proliferation, sFab at 50 µg/ml [11] | Kd [13] | Kd [14] | competition score [15] | competition score [16] | competition score [17] | competition score [18] | IC50, IGF-II stimulated Ba/F3 cell proliferation (Guava ViaCount) [20] | IC50, IGF-IIE stimulated Ba/F3 cell proliferation (Guava ViaCount) [21] | other results
M0064-F02 IgG (parental, non-germlined) (antibody, V domains shown) VH: EVQLLESGGGLVQPGGSLRLSCAASGFTFSNYIMWWVRQAPGKGLEWVSVISSSGGMTRYADSVKGRFTISRDNSKNTLYLQMNSLRAEDTAVYYCARDNGDYVGEKGFDIWGQGTMVTVSS VL: DIQMTQSPSSLSASVGDRVTITCRASQSISNYLNWYQQKPGKAPKLLIYTASTLQSGVPSRFSGSASGTDFTLTINSLQPEDFATYSCQQSYNSPWTFGQGTKVEIK | – | – | – | – | – | – | – | – | – | – | – | 0.14 nM | 0.032 nM | 4 score 0-5 | 4 score 0-5 | 4 score 0-5 | 4 score 0-5 | – | – | –
X0008-A01 (germlined M0064-F02 IgG) (antibody, V domains shown) VH: EVQLLESGGGLVQPGGSLRLSCAASGFTFSNYIMWWVRQAPGKGLEWVSVISSSGGMTRYADSVKGRFTISRDNSKNTLYLQMNSLRAEDTAVYYCARDNGDYVGEKGFDIWGQGTMVTVSS VL: DIQMTQSPSSLSASVGDRVTITCRASQSISNYLNWYQQKPGKAPKLLIYTASTLQSGVPSRFSGSGSGTDFTLTISSLQPEDFATYYCQQSYNSPWTFGQGTKVEIK | – | – | – | – | – | – | – | – | – | – | – | 0.023 nM | < 0.023 nM | – | – | – | – | – | – | –
M0063-F02 Fab (Fab, V domains shown, soluble Fab (sFab); also called R0032-A01) VH: EVQLLESGGGLVQPGGSLRLSCAASGFTFSKYEMDWVRQAPGKGLEWVSVISSSGGGTIYADSVKGRFTISRDNSKNTLYLQMNSLRAEDTAMYYCARGRTLYGGAFDIWGQGTMVTVSS VL: DIQMTQSPSSLSASVGDRVTITCRASQPINTYLNWYQQRPGKAPRILIYTSSTLQSGVPSRFSGSGSGTDFTLTISSVQPEDFATYYCQQSYSFPLTFGGGTKVEIKR | 1.6 nM | 0.2 nM | 0.858 nM | 1.47 nM | 1.17 nM | 2.78 nM | 5.56 µg/mL | 2.04 µg/mL | 0.77 nM | 0.12 nM | ~30 % inhibition | – | – | – | – | – | – | – | – | –
M0063-F02 IgG (parental) (antibody, V domains shown) VH: EVQLLESGGGLVQPGGSLRLSCAASGFTFSKYEMDWVRQAPGKGLEWVSVISSSGGGTIYADSVKGRFTISRDNSKNTLYLQMNSLRAEDTAMYYCARGRTLYGGAFDIWGQGTMVTVSS VL: DIQMTQSPSSLSASVGDRVTITCRASQPINTYLNWYQQRPGKAPRILIYTSSTLQSGVPSRFSGSGSGTDFTLTISSVQPEDFATYYCQQSYSFPLTFGGGTKVEIK | – | – | – | – | – | – | – | – | – | – | – | – | – | 1 score 0-5 | 1 score 0-5 | 0 score 0-5 | 1 score 0-5 | 2 nM | 0.85 nM | IC50, IGF-II stimulated Ba/F3 cell proliferation (Guava ViaCount), second study [20]: ~7 nM; IC50, IGF-IIE stimulated Ba/F3 cell proliferation (Guava ViaCount), second study [21]: ~10 nM

Now from value to binder, other results behind:

Kd [1] | Kd [2] | Kd [3] | Kd [4] | Kd [5] | Kd [6] | IC50, IGF-II stimulated Ba/F3 cell proliferation (MTS) [7] | IC50, IGF-IIE stimulated Ba/F3 cell proliferation (MTS) [8] | Kd [9] | Kd [10] | IGF-I stimulated Ba/F3 cell proliferation, sFab at 50 µg/ml [11] | Kd [13] | Kd [14] | competition score [15] | competition score [16] | competition score [17] | competition score [18] | IC50, IGF-II stimulated Ba/F3 cell proliferation (Guava ViaCount) [20] | IC50, IGF-IIE stimulated Ba/F3 cell proliferation (Guava ViaCount) [21] | Binder | other results
0.25 nM | 0.12 nM | 1.11 nM | 0.424 nM | 0.608 nM | 0.429 nM | 3.04 µg/mL | 5.46 µg/mL | 0.12 nM | 0.093 nM | ~30 % inhibition | – | – | – | – | – | – | – | – | M0064-E04 Fab (Fab, V domains shown, soluble Fab (sFab); also called R0032-A03; 566A-M0064-E04) VH: EVQLLESGGGLVQPGGSLRLSCAASGFTFSVYDMNWVRQAPGKGLEWVSSISSSGGGTLYADSVKGRFTISRDNSKNTLYLQMNSLRAEDTAVYYCARDSDTSSYYWYYDLWGRGTLVTVSS VL: DIQMTQSPSSLSASVGDRVTITCQASHDISNYLNWYQQKPGKAPKLLIYAASRLQSGVPSRFSGGGSGTDFSLTISSLQAEDFATYYCQQSYSFPRTFGQGTNLEIKR | –
– | – | – | – | – | – | – | – | – | – | – | 0.52 nM | 0.24 nM | 5 score 0-5 | 4 score 0-5 | 5 score 0-5 | 4 score 0-5 | ~19 nM | ~130 nM | M0064-E04 IgG (parental, non-germlined) (antibody, V domains shown) VH: EVQLLESGGGLVQPGGSLRLSCAASGFTFSVYDMNWVRQAPGKGLEWVSSISSSGGGTLYADSVKGRFTISRDNSKNTLYLQMNSLRAEDTAVYYCARDSDTSSYYWYYDLWGRGTLVTVSS VL: DIQMTQSPSSLSASVGDRVTITCQASHDISNYLNWYQQKPGKAPKLLIYAASRLQSGVPSRFSGGGSGTDFSLTISSLQAEDFATYYCQQSYSFPRTFGQGTNLEIK | binding result [12]: no binding (tested: 50.0 nM); binding result [19]: no binding (tested: 50.0 nM)
